To fix the notation:
B1: CD2-associated protein, residues 109 to 169; numbered along this chain, Q9Y5K6 (parent)
chain: KKRQCKVLFEYIPQNEDELELKVGDIIDINEEVEEGWWSGTLNNKLGLFPSNFVKELEVTD

± gives the uncertainty stated by the source.

The data set covers variants of B1. The experiment in a line: abundance fitness (aPCA) (normalised: wild type 0, dead -1); higher = more abundant; growth selection in yeast, the domain comes from the species named. To be noted: Homo sapiens.
KKRQCKVLFEYIPQNEDELELKVGDIIWINEEVEEGWWSGTLNNKLGLFPSNFVKELEVTD [D28W]: the abundance fitness is -0.268 ± 0.15.

As for KKRQCKVLFEYIPQNEDELELKVGDIICINEEVEEGWWSGTLNNKLGLFPSNFVKELEVTD [D28C], the abundance fitness was -0.264 ± 0.25.

As for KKRQCKVLFEYIPQNEDELELKVGDIIHINEEVEEGWWSGTLNNKLGLFPSNFVKELEVTD [D28H], the abundance fitness is -0.136 ± 0.25.

For the variant KKRQCKVLFEYIPQNEDELELKVGDIIAINEEVEEGWWSGTLNNKLGLFPSNFVKELEVTD [D28A], the abundance fitness was -0.536 ± 0.19.

In the case of KKRQCKVLFEYIPQNEDELELKVGDIIRINEEVEEGWWSGTLNNKLGLFPSNFVKELEVTD [D28R], the abundance fitness was -0.515 ± 0.12.

KKRQCKVLFEYIPQNEDELELKVGDIIDIQEEVEEGWWSGTLNNKLGLFPSNFVKELEVTD [N30Q]: the abundance fitness was -0.043 ± 0.19.

For KKRQCKVLFEYIPQNEDELELKVGDIIDIVEEVEEGWWSGTLNNKLGLFPSNFVKELEVTD [N30V], the abundance fitness came out at 0.101 ± 0.15.

For KKRQCKVLFEYIPQNEDELELKVGDIIDICEEVEEGWWSGTLNNKLGLFPSNFVKELEVTD [N30C], the abundance fitness was -0.256 ± 0.42.

Consider KKRQCKVLFEYIPQNEDELELKVGDIIDIEEEVEEGWWSGTLNNKLGLFPSNFVKELEVTD [N30E], for which the abundance fitness was found to be 0.302 ± 0.24.

Take KKRQCKVLFEYIPQNEDELELKVGDIIDIMEEVEEGWWSGTLNNKLGLFPSNFVKELEVTD [N30M]: the abundance fitness was -0.151 ± 0.18.

As for KKRQCKVLFEYIPQNEDELELKVGDIIDIAEEVEEGWWSGTLNNKLGLFPSNFVKELEVTD [N30A], the abundance fitness is -0.305 ± 0.47.

As for KKRQCKVLFEYIPQNEDELELKVGDIIDIDEEVEEGWWSGTLNNKLGLFPSNFVKELEVTD [N30D], the abundance fitness was -0.123 ± 0.29.

As to KKRQCKVLFEYIPQNEDELELKVGDIIDIPEEVEEGWWSGTLNNKLGLFPSNFVKELEVTD [N30P], the abundance fitness is -0.438 ± 0.32.

In the case of KKRQCKVLFEYIPQNEDELELKVGDIIDIREEVEEGWWSGTLNNKLGLFPSNFVKELEVTD [N30R], the abundance fitness is -0.171 ± 0.11.

With KKRQCKVLFEYIPQNEDELELKVGDIIDISEEVEEGWWSGTLNNKLGLFPSNFVKELEVTD [N30S], the abundance fitness is -0.11 ± 0.1.

Take KKRQCKVLFEYIPQNEDELELKVGDIIDINELVEEGWWSGTLNNKLGLFPSNFVKELEVTD [E32L]: the abundance fitness was -0.689 ± 0.42.

Regarding KKRQCKVLFEYIPQNEDELELKVGDIIDINETVEEGWWSGTLNNKLGLFPSNFVKELEVTD [E32T], the abundance fitness is -0.094 ± 0.18.

KKRQCKVLFEYIPQNEDELELKVGDIIDINEAVEEGWWSGTLNNKLGLFPSNFVKELEVTD [E32A]: the abundance fitness was -0.38 ± 0.24.

As to KKRQCKVLFEYIPQNEDELELKVGDIIDINEWVEEGWWSGTLNNKLGLFPSNFVKELEVTD [E32W], the abundance fitness was -0.374 ± 0.31.

For KKRQCKVLFEYIPQNEDELELKVGDIIDINECVEEGWWSGTLNNKLGLFPSNFVKELEVTD [E32C], the abundance fitness was -0.274 ± 0.3.

For the variant KKRQCKVLFEYIPQNEDELELKVGDIIDINESVEEGWWSGTLNNKLGLFPSNFVKELEVTD [E32S], the abundance fitness is -0.091 ± 0.16.

For the variant KKRQCKVLFEYIPQNEDELELKVGDIIDINEMVEEGWWSGTLNNKLGLFPSNFVKELEVTD [E32M], the abundance fitness was determined as 0.178 ± 0.19.

As for KKRQCKVLFEYIPQNEDELELKVGDIIDINEKVEEGWWSGTLNNKLGLFPSNFVKELEVTD [E32K], the abundance fitness was -0.188 ± 0.2.

Turning to KKRQCKVLFEYIPQNEDELELKVGDIIDINEGVEEGWWSGTLNNKLGLFPSNFVKELEVTD [E32G], the abundance fitness was -0.188 ± 0.17.

Consider KKRQCKVLFEYIPQNEDELELKVGDIIDINERVEEGWWSGTLNNKLGLFPSNFVKELEVTD [E32R], for which the abundance fitness was -0.407 ± 0.25.

For KKRQCKVLFEYIPQNEDELELKVGDIIDINEIVEEGWWSGTLNNKLGLFPSNFVKELEVTD [E32I], the abundance fitness is -0.28 ± 0.41.

Turning to KKRQCKVLFEYIPQNEDELELKVGDIIDINEVVEEGWWSGTLNNKLGLFPSNFVKELEVTD [E32V], the abundance fitness was -0.155 ± 0.3.

Take KKRQCKVLFEYIPQNEDELELKVGDIQDINEEVEEGWWSGTLNNKLGLFPSNFVKELEVTD [I27Q]: the abundance fitness was -0.541 ± 0.19.

On to KKRQCKVLFEYIPQNEDELELKVGDISDINEEVEEGWWSGTLNNKLGLFPSNFVKELEVTD [I27S], for which the abundance fitness is -0.641 ± 0.2.

KKRQCKVLFEYIPQNEDELELKVGDIVDINEEVEEGWWSGTLNNKLGLFPSNFVKELEVTD [I27V]: the abundance fitness stood at 0.03 ± 0.32.

For KKRQCKVLFEYIPQNEDELELKVGDIYDINEEVEEGWWSGTLNNKLGLFPSNFVKELEVTD [I27Y], the abundance fitness was -0.684 ± 0.49.

Consider KKRQCKVLFEYIPQNEDELELKVGDIWDINEEVEEGWWSGTLNNKLGLFPSNFVKELEVTD [I27W], for which the abundance fitness was -0.913 ± 0.24.

On to KKRQCKVLFEYIPQNEDELELKVGDITDINEEVEEGWWSGTLNNKLGLFPSNFVKELEVTD [I27T], for which the abundance fitness is -0.902 ± 0.27.

Turning to KKRQCKVLFEYIPQNEDELELKVGDIPDINEEVEEGWWSGTLNNKLGLFPSNFVKELEVTD [I27P], the abundance fitness was -0.61 ± 0.33.

Take KKRQCKVLFEYIPQNEDELELKVGDIIDINEEKEEGWWSGTLNNKLGLFPSNFVKELEVTD [V33K]: the abundance fitness is -0.262 ± 0.15.

Turning to KKRQCKVLFEYIPQNEDELELKVGDIIDINEEMEEGWWSGTLNNKLGLFPSNFVKELEVTD [V33M], the abundance fitness is 0.085 ± 0.27.

On to KKRQCKVLFEYIPQNEDELELKVGDIIDINEEEEEGWWSGTLNNKLGLFPSNFVKELEVTD [V33E], for which the abundance fitness was -0.192 ± 0.2.

Take KKRQCKVLFEYIPQNEDELELKVGDIIDINEEGEEGWWSGTLNNKLGLFPSNFVKELEVTD [V33G]: the abundance fitness is -0.483 ± 0.43.

KKRQCKVLFEYIPQNEDELELKVGDIIDINEEFEEGWWSGTLNNKLGLFPSNFVKELEVTD [V33F]: the abundance fitness was -0.242 ± 0.23.

With KKRQCKVLFEYIPQNEDELELKVGDIIDINEEHEEGWWSGTLNNKLGLFPSNFVKELEVTD [V33H], the abundance fitness was -0.404 ± 0.34.

For the variant KKRQCKVLFEYIPQNEDELELKVGDIIDINEEQEEGWWSGTLNNKLGLFPSNFVKELEVTD [V33Q], the abundance fitness is -0.55 ± 0.29.

On to KKRQCKVLFEYIPQNEDELELKVGDIIDINEEREEGWWSGTLNNKLGLFPSNFVKELEVTD [V33R], for which the abundance fitness was 0.108 ± 0.17.

As to KKRQCKVLFEYIPQNEDELELKVGDIIDINEEAEEGWWSGTLNNKLGLFPSNFVKELEVTD [V33A], the abundance fitness was -0.132 ± 0.23.

For the variant KKRQCKVLFEYIPQNEDELELKVGDIIDINEEIEEGWWSGTLNNKLGLFPSNFVKELEVTD [V33I], the abundance fitness is 0.129 ± 0.23.
